The record followed here is patent EP4484444A1.

The test concerns the target CPIII-Long (model substrate derived from procollagen III). Briefly: cell-based or functional assay.

For the substance “human PCPE-1 fused to a C-terminal 8His tag (from UniProt Q15113 26-449)”, the enhancement factor of CPIII-Long cleavage by BMP-1 with 4 equivalents was more than 3 and the enhancement factor of CPIII-Long processing by BMP-1 is 1.7.
